In this assay the target is human protein kinase R (PKR) (human) (UniProt P19525). The experiment in a line: cell-based or functional assay.
Chain of UniProt P19525 (P19525 2-551 limits assumed): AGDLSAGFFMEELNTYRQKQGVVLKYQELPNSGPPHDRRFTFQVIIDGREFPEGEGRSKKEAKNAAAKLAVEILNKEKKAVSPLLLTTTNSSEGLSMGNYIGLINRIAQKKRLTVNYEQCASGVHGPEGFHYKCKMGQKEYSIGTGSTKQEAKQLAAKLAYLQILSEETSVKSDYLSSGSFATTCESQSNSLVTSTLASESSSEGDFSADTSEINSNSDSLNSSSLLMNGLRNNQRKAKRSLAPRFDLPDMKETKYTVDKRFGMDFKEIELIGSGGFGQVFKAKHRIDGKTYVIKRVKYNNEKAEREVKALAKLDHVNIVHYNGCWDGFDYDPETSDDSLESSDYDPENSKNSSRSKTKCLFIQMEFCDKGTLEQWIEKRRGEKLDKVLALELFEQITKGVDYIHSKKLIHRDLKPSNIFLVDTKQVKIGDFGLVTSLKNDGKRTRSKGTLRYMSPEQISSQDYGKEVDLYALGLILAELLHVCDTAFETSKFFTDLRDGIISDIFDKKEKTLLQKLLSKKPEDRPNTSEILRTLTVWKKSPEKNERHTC

In turn, “Yaba monkey tumor virus 012 (K3 ortholog)” gave a virus titre increase between 5 hpi and 48 hpi in HeLa cells of more than 10 fold.

Source of the values: US20210244739A1.
